Experimental data reported in the RNAGym collection of RNA variant scans (doi:10.7554/elife.80360).

B1: Hairpin Ribozyme (parent)
chain: GUCCUCUUUCACGUGCGCGUGAAAGAGAGAAGUGAACCAGAGAAACACACGUUGUGGUAUAUUACCUGGUA

Variants of: B1
Experiment: self-cleavage, relative activity (ratio to wild type); higher = more cleavage; co-transcriptional

First: A47C G68U
Second: A43C G68A
The self-cleavage of the first is higher: 0.298 for the first, 0.176 for the second.

Going from C18U A61C to C3A G69A, the self-cleavage rises from 0.17 to 0.275.

Going from U2A U14G to C18A C65A, the self-cleavage rises from 0.235 to 0.957.

Compared with U8C A11G, A28U G51U is higher in self-cleavage: 0.458 for the first, 0.485 for the second.

Going from U55C U63G to C38A A41C, the self-cleavage rises from 0.119 to 0.183.

First: A61U U67G
Second: A49C C66U
The self-cleavage of the first is lower: 0.129 for the first, 0.183 for the second.

First: C38A A49U
Second: U52A A59C
The self-cleavage of the first is lower: 0.0928 for the first, 0.245 for the second.

Compared with A22G G57U, C4U A39U is lower in self-cleavage: 0.305 for the first, 0.188 for the second.

Compared with C3A G19U, A36C A39G is lower in self-cleavage: 0.582 for the first, 0.363 for the second.

First: C12U A24U
Second: U20G G34C
The self-cleavage of the first is lower: 0.802 for the first, 1.14 for the second.

Compared with C18G G34U, C3G A28C is lower in self-cleavage: 1.32 for the first, 0.541 for the second.

Going from C10A A45C to G34A U53G, the self-cleavage rises from 0.111 to 1.17.

First: C18G A22C
Second: G1C C16A
The self-cleavage of the first is higher: 0.79 for the first, 0.0908 for the second.

Going from A11U A28U to U5C U67C, the self-cleavage falls from 0.494 to 0.144.

Compared with A43C U53C, U2G G29A is higher in self-cleavage: 0.163 for the first, 0.168 for the second.

Compared with G13A U62G, G29A G68U is higher in self-cleavage: 0.106 for the first, 0.306 for the second.

First: A26C U52C
Second: G13U U58A
The self-cleavage of the first is higher: 0.811 for the first, 0.808 for the second.

First: A28G G69A
Second: G51C A64U
The self-cleavage of the first is higher: 0.48 for the first, 0.0968 for the second.

First: C37U A64U
Second: G51U A64C
The self-cleavage of the first is higher: 0.242 for the first, 0.188 for the second.

Going from G34U C37U to A36G C48U, the self-cleavage falls from 1.59 to 0.228.

Compared with U7C A39G, A61C C65G is lower in self-cleavage: 0.263 for the first, 0.189 for the second.

First: U20C G21U
Second: U5C U63G
The self-cleavage of the first is higher: 0.652 for the first, 0.0578 for the second.

First: G34U U60C
Second: G25A A39U
The self-cleavage of the first is higher: 1.42 for the first, 0.285 for the second.

Compared with G13U U67G, U58A C65A is higher in self-cleavage: 0.241 for the first, 0.503 for the second.

Compared with C3U C50U, C3A U33G is lower in self-cleavage: 0.187 for the first, 0.146 for the second.

Going from C6A G29A to C4G A43C, the self-cleavage falls from 0.129 to 0.121.

Going from A47G U60G to U60C, the self-cleavage rises from 0.0656 to 1.16.

Going from U55A A61C to U7G U62A, the self-cleavage falls from 0.104 to 0.101.

Compared with G27A C50A, C12A U55C is higher in self-cleavage: 0.104 for the first, 0.208 for the second.

Going from U62G U70A to A39G C50A, the self-cleavage rises from 0.163 to 0.196.

Going from G13A G25U to G25U G42A, the self-cleavage falls from 0.512 to 0.144.

Going from G32A A49C to G19A C48A, the self-cleavage rises from 0.0198 to 0.136.

Compared with A28C A41U, U8C G34C is higher in self-cleavage: 1.12 for the first, 1.16 for the second.

Compared with A39G G54C, C6G A11C is higher in self-cleavage: 0.131 for the first, 0.45 for the second.

Compared with C16G G42A, U9A C16U is higher in self-cleavage: 0.251 for the first, 0.624 for the second.

Going from U33C G51C to G29C U33A, the self-cleavage falls from 0.0825 to 0.0541.

Compared with U9C G69A, A59U A64U is lower in self-cleavage: 0.357 for the first, 0.191 for the second.

First: C6U G69A
Second: A44C A71C
The self-cleavage of the first is higher: 0.379 for the first, 0.323 for the second.

First: C4U C18A
Second: U60C U70G
The self-cleavage of the first is lower: 0.4 for the first, 1.03 for the second.

First: A30U C48G
Second: A61C G69C
The self-cleavage of the first is higher: 0.118 for the first, 0.0992 for the second.

Going from U33A C46A to G1A C50U, the self-cleavage rises from 0.122 to 0.135.

Going from A11U A45U to C6A G42A, the self-cleavage falls from 0.255 to 0.161.

Going from G56A A61C to U9A C18A, the self-cleavage rises from 0.112 to 0.855.

Compared with U55A U62A, G17A G29A is lower in self-cleavage: 0.104 for the first, 0.0893 for the second.

Compared with A47C C48A, U52A A59G is lower in self-cleavage: 0.164 for the first, 0.159 for the second.

Going from C37G U53G to C3U C12U, the self-cleavage rises from 0.238 to 0.345.

Compared with G54U U60G, U20G A59C is higher in self-cleavage: 0.29 for the first, 0.313 for the second.

First: C65A A71C
Second: U8G G56A
The self-cleavage of the first is higher: 1.07 for the first, 0.11 for the second.

Compared with C50G G68C, C10A A41U is higher in self-cleavage: 0.0881 for the first, 1.04 for the second.

Going from G15U G27C to G13U A47G, the self-cleavage falls from 0.278 to 0.143.

Going from C10G G42C to G27U U58G, the self-cleavage falls from 0.307 to 0.225.

Compared with A28C A39U, A28G G51U is higher in self-cleavage: 0.127 for the first, 1.14 for the second.

Compared with C50A U63C, U58A U60A is higher in self-cleavage: 0.198 for the first, 0.509 for the second.

Going from A23G U63C to A36G G57C, the self-cleavage falls from 0.148 to 0.124.

Going from A31G U60C to A41U A45G, the self-cleavage falls from 0.836 to 0.218.

First: U8A A59G
Second: G42C U62A
The self-cleavage of the first is higher: 0.215 for the first, 0.102 for the second.

First: A11U A24G
Second: G34A U67G
The self-cleavage of the first is higher: 0.813 for the first, 0.346 for the second.

Going from C46A A64G to U2A U5C, the self-cleavage falls from 0.185 to 0.137.

Going from U33C C37U to C10A A11C, the self-cleavage rises from 0.0997 to 0.624.

Compared with A22C C66U, G13A G27A is lower in self-cleavage: 0.649 for the first, 0.462 for the second.

Going from A61U U63A to C16A A41C, the self-cleavage rises from 0.123 to 1.18.

First: A39U A44U
Second: G13A G19C
The self-cleavage of the first is lower: 0.102 for the first, 0.804 for the second.

Going from U2C C66G to A24U A41C, the self-cleavage rises from 0.0316 to 1.1.

Going from U14A to G56A U70G, the self-cleavage falls from 0.956 to 0.254.

First: C10U C38G
Second: U9G G34A
The self-cleavage of the first is lower: 0.269 for the first, 0.8 for the second.

First: C10A G17U
Second: A11U A39G
The self-cleavage of the first is higher: 0.681 for the first, 0.342 for the second.

First: G25U G69A
Second: U20C A36G
The self-cleavage of the first is lower: 0.261 for the first, 1 for the second.

Going from A26G A61U to A35U A44U, the self-cleavage falls from 0.281 to 0.0832.

First: A41G G57A
Second: G1U A47G
The self-cleavage of the first is higher: 0.184 for the first, 0.046 for the second.

First: A47U C50U
Second: A31U G54C
The self-cleavage of the first is higher: 0.171 for the first, 0.119 for the second.

Going from A49U A59U to U9G A11G, the self-cleavage rises from 0.178 to 0.551.

First: C38U C48A
Second: A39U G68U
The self-cleavage of the first is lower: 0.142 for the first, 0.225 for the second.

Going from A47U C66A to A47G U55A, the self-cleavage rises from 0.157 to 0.184.

Going from C12G C16G to U63G A64U, the self-cleavage falls from 0.806 to 0.157.

Compared with A45G U58A, C10A C46G is lower in self-cleavage: 0.174 for the first, 0.1 for the second.

Compared with A24G U70G, G29C U53G is lower in self-cleavage: 0.834 for the first, 0.0421 for the second.

Compared with U7A G69C, C4U A22U is higher in self-cleavage: 0.196 for the first, 0.362 for the second.

Compared with C37G U63A, A22U U58G is higher in self-cleavage: 0.172 for the first, 0.769 for the second.

First: U20A G69C
Second: U2A U58G
The self-cleavage of the first is higher: 0.268 for the first, 0.161 for the second.

First: A28U G56A
Second: C48U G69U
The self-cleavage of the first is lower: 0.174 for the first, 0.182 for the second.

Going from G51U A61G to C50A G56U, the self-cleavage rises from 0.112 to 0.274.

First: U5C
Second: U8G A11U
The self-cleavage of the first is lower: 0.648 for the first, 0.67 for the second.

Compared with G42C G54C, C3G A31U is lower in self-cleavage: 0.113 for the first, 0.057 for the second.

Variant C6U G13C has a self-cleavage of 0.65.
